Assay results: patent US20240101668A1 (WUGEN, published 2024)
Changes are numbered by the printed parent chain.

B1: Polypeptide No. 26 (scFv, V domains shown)
VH: QVQLVQSGAEVKKPGASVKVSCKASGYTFTENEMHWVRQAPGQGLEWMGWMNPNSGNTGYAQKFQGRVTMTRDTSTSTVYMELSSLRSEDTAVYYCAREGGDWPYYYMDVWGKGTTVTVSS
VL: DIQMTQSPSSLSASVGDRVTITCQASQDIRNYLNWYQQKPGKAPKLLIYAASSLQSGVPSRFSGSGSGTDFTLTISSLQPEDFATYYCQQTSSTPLTFGPGTKVDIKR
notes: scFv
B2: Polypeptide No. 277 (scFv, V domains shown)
VH: QVQLVQSGAEVKKPGSSVKVSCKASGYTFTGYYMHWVRQAPGQGLEWMGWIDPNSGGTNYAQKFQGRVTITADESTSTAYMELSSLRSEDTAVYYCARDVDTAMVTDYWGRGTLVTVSS
VL: EIVMTQSPATLSVSPGERATLSCRASQSVDNLVGWYQQKPGQAPRLLIYDISSRATGIPARFSGSGSGTEFTLTISSLQSEDFAVYYCQQYGRSPITFGQGTRLEIKR
notes: scFv
B3: Polypeptide No. 234 (scFv, V domains shown)
VH: QVQLVQSGAEVKKPGSSVKVSCKASGHTFTAYYMHWVRQAPGQGLEWMGWMSPYSGNTGYAQNFQGRVTITADESTSTAYMELSSLRSEDTAVYYCARATRGTIQHWGQGTLVTVSS
VL: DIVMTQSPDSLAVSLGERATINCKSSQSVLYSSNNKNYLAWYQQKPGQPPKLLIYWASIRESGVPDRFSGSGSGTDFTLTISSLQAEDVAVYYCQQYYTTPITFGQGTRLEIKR
notes: scFv
B4: Polypeptide No. 227 (scFv, V domains shown)
VH: QVQLVQSGAEVKKPGSSVKVSCKASGYTLNELFMHWVRQAPGQGLEWVGGIIPMSGTTFYAQTFQGRVTITADESTSTAYMELSSLRSEDTAVYYCAKGVRQYSYGRYYYGMDVWGQGTLVTVSS
VL: DIQMTQSPSSLSASVGDRVTITCRASQSVSSYLNWYQQKPGKAPKLLIYGASNLQSGVPSRFSGSGSGTDFTLTISSLQPEDFATYYCQQSYTTPWTFGQGTRLEIKR
notes: scFv
B5: Polypeptide No. 271 (scFv, V domains shown)
VH: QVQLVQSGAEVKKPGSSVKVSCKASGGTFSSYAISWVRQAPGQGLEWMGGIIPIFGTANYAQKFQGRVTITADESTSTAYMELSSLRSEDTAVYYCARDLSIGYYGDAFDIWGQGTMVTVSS
VL: EIVMTQSPATLSVSPGERATLSCRASQSVSYNQLAWYQQKPGQAPRLLIYDISSRAAGIPARFSGSGSGTEFTLTISSLQSEDFAVYYCQQYGGLPATFGQGTRLEIKR
notes: scFv
B6: Polypeptide No. 272 (scFv, V domains shown)
VH: QVQLVQSGAEVKKPGSSVKVSCKASGYIFTNYYIQWVRQAPGQGLEWMGGIIPIFGTVGYAQKFQGRVTITADESTSTAYMELSSLRSEDTAVYYCARGRIGGGNDYWGQGTLVTVSS
VL: B1 VL with D28Y, R30S, A50D, Q55E, T91S, S92Y, L96Y, P100Q, V104L, D105E
notes: scFv
B7: Polypeptide No. 264 (scFv, V domains shown)
VH: QVQLVQSGAEVKKPGSSVKVSCKASGYTLTELSMHWVRQAPGQGLEWMGGIIPISSATSIPQKFQGRVTITADESTSTAYMELSSLRSEDTAVYYCARGALYSSSPVRVVAGTKGWFDPWGQGTLVTVSS
VL: B1 VL with Q24R, R30S, N34A, T91Y, S92Y, T94Y, P100G, D105E
notes: scFv
B8: Polypeptide No. 232 (scFv, V domains shown)
VH: QVQLVQSGAEVKKPGASVKVSCKASGYTFTSYGIHWVRQAPGQGLEWMGGIIPIFGTASYAQKFQGRVTMTRDTSTSTVYMELSSLRSEDTAVYYCTRSNGIAAAGTHWYFDLWGRGTLVTVSS
VL: B1 VL with Q24R, D28N, R30A, Y32S, T91Y, T94Y, L96P
notes: scFv
B9: Polypeptide No. 285 (scFv, V domains shown)
VH: QVQLVQSGAEVKKPGSSVKVSCKASGYSFTNYYMHWVRQAPGQGLEWMGGIIPVFGTTTYSQTFQGRVTITADESTSTAYMELSSLRSEDTAVYYCARESQDGDFDYWGQGTLVTVSS
VL: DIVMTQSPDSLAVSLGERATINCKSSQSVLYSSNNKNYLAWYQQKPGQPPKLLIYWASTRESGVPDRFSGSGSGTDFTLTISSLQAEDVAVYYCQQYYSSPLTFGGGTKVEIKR
notes: scFv
B10: Polypeptide No. 236 (scFv, V domains shown)
VH: QVQLVQSGAEVKKPGSSVKVSCKASGGTFSSYAISWVRQAPGQGLEWMGGIIPILGIANYAQKFQGRVTITADESTSTAYMELSSLRSEDTAVYYCAHVDGYGMDVWGQGTTVTVSS
VL: EIVMTQSPATLSVSPGERATLSCRASQSVSSNLAWYQQKPGQAPRLLIYDVSSRATGIPARFSGSGSGTEFTLTISSLQSEDFAVYYCQQLDAYPLTFGGGTKVEIKR
notes: scFv
B11: Polypeptide No. 266 (scFv, V domains shown)
VH: QVQLVQSGAEVKKPGSSVKVSCKASGYSLTELSIHWVRQAPGQGLEWMGGINPISGTANYAQKFQGRVTITADESTSTAYMELSSLRSEDTAVYYCARGTVRLNWFDPWGQGTLVTVSS
VL: B10 VL with S30G, N32Q, A34G, D50G, V51A, S53T, L91S, D92F, A93S, Y94T
notes: scFv
B12: Polypeptide No. 255 (scFv, V domains shown)
VH: QVQLVQSGAEVKKPGSSVKVSCKASGYTLTELSMHWVRQAPGQGLEWMGGIIPISGTVTYAQKFQGRVTITADESTSTAYMELSSLRSEDTAVYYCANKGQQLVRGYFQHWGQGTLVTVSS
VL: DIQMTQSPSSLSASVGDRVTITCQASHDIRNSVNWYQQKPGKAPKLLIYATSSLQSGVPSRFSGSGSGTDFTLTISSLQPEDFATYYCQQSYNTPFTFGQGTKLEIKR
notes: scFv
B13: Polypeptide No. 267 (scFv, V domains shown)
VH: QVQLVQSGAEVKKPGSSVKVSCKASGYTLTSFGISWVRQAPGQGLEWVGMIIPLSGTTHYAQKFQGRVTITADESTSTAYMELSSLRSEDTAVYYCANLYGGNAYYYYGMDVWGQGTTVTVSS
VL: B12 VL with Q24R, H27Q, R30S, S32F, N34A, T51A, Y92F, N93D, F96Y
notes: scFv
B14: Polypeptide No. 274 (scFv, V domains shown)
VH: QVQLVQSGAEVKKPGSSVKVSCKASGYTFTYRYLHWVRQAPGQGLEWMGRITPISGTTNYAQKFQGRVTITADESTSTAYMELSSLRSEDTAVYYCAKDSGQLAHYGMDVWGQGTTVTVSS
VL: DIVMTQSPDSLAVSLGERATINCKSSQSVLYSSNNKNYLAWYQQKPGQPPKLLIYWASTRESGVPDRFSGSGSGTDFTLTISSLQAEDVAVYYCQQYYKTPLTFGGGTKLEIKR
notes: scFv
B15: Polypeptide No. 275 (scFv, V domains shown)
VH: QVQLVQSGAEVKKPGSSVKVSCKASGYTFTSYYMHWVRQAPGQGLEWMGWMNPYSGNTGYAQKFQGRVTITADESTSTAYMELSSLRSEDTAVYYCARVGSGWYSDYWGQGTLVTVSS
VL: not shown
notes: scFv
B16: Polypeptide No. 209 (scFv, V domains shown)
VH: EVQLLESGGGLVQPGGSLRLSCAASGFAFSSYVLHWVRQAPGKGLEWVAGIWVDGHNKDYADSVKGRFTISRDNSKNTLYLQMNSLRAEDTAVYYCAREFGAAGSFQHWGQGTLVTVSS
VL: DIQMTQSPSSLSASVGDRVTITCRASQSISTWLAWYQQKPGKAPKLLIYDASKLETGVPSRFSGSGSGTDFTLTISSLQPEDFATYYCQQSYTTPYTFGQGTKVEIKR
notes: scFv
B17: Polypeptide No. 230 (scFv, V domains shown)
VH: QVQLVQSGAEVKKPGSSVKVSCKASGGTFSSNAINWVRQAPGQGLEWMGGIIPLFGTTNYAQKFQGRVTITADESTSTAYMELSSLRSEDTAVYYCARVLSGWYGTYYFDYWGQGTLVTVSS
VL: EIVMTQSPATLSVSPGERATLSCRASQSVSADYIAWYQQKPGQAPRLLIYDVSTRASGIPARFSGSGSGTEFTLTISSLQSEDFAVYYCQHYGSSQVTFGQGTKVEIKR
notes: scFv
B18: Polypeptide No. 251 (scFv, V domains shown)
VH: QVQLVQSGAEVKKPGSSVKVSCKASGGTFSSDAINWVRQAPGQGLEWMGGIIPIVGTPTYAQKFQGRVTITADESTSTAYMELSSLRSEDTAVYYCAKGLAFGVFDGLDVWGQGTTVTVSS
VL: B17 VL with A31S, D32N, I34L, S57T, H91Q, Q96T, V97L, Q101G
notes: scFv
B19: Polypeptide No. 216 (scFv, V domains shown)
VH: QVQLVQSGAEVKKPGSSVKVSCKASGNTFTMYYMHWVRQAPGQGLEWVGAIIPISGTVIYARKFQGRVTITADESTSTAYMELSSLRSEDTAVYYCARLSGGRMYDAFDIWGQGTTVTVSS
VL: not shown
notes: scFv
B20: Polypeptide No. 217 (scFv, V domains shown)
VH: QVQLVQSGAEVKKPGSSVKVSCKASGYTFTTFYLHWVRQAPGQGLEWIGGIIPMSGTANYAQKFQGRVTITADESTSTAYMELSSLRSEDTAVYYCASGGENGMDVWGQGTTVTVSS
VL: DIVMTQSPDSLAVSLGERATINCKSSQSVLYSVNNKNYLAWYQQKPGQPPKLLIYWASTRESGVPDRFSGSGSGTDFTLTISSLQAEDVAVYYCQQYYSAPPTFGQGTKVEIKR
notes: scFv
B21: Polypeptide No. 252 (scFv, V domains shown)
VH: QVQLVQSGAEVKKPGSSVKVSCKASGYTLTDLSIHWVRQAPGQGLEWVGGIIPMSGTANYAQKFQGRVTITADESTSTAYMELSSLRSEDTAVYYCARSSSSWPKYFQHWGQGTLVTVSS
VL: not shown
notes: scFv

The binders below were run against T1, huCD33-G69-Fc recombinant protein (human, UniProt P20138 18-259) (assay: BLI).
T1 construct: extracellular domain; also called CD33 R69G
T1 sequence (P20138 18-259 R69G): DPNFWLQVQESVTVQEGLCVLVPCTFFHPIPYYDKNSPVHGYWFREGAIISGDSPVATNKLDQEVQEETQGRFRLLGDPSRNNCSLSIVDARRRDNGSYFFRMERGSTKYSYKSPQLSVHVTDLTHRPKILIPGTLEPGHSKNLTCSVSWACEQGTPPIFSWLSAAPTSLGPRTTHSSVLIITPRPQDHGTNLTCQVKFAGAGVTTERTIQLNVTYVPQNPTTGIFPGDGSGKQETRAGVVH
Protocol: (§1) Discovered scFvs were analyzed for binding to huCD33-R69-His or huCD33-G69-Fc recombinant proteins (for anti-CD33 scFvs; for CLL-1 scFvs, huCLL1-K244-Avi-Tev-His or huCLL1-Q244-Avi-Tev-His were used; for FLT3, huFLT3-T227-His or huFLT3-M227-Fc were used) using BLI on a ForteBio Octet HTX instrument. Streptavidin-coated biosensors were loaded with biotinylated anti-V5 tag monoclonal antibody for 5 min and were then quenched and blocked with 20 μM amine-PEG2-Biotin for 5 min. scFvs were captured on biosensors from scFv clone periplasmic extracts. huCD33 (or huCLL-1, or huFLT3) proteins were then associated with the captured scFvs for 2 minutes, followed by dissociation with buffer (1×HBST [10 mM HEPES pH 7.4, 150 mM NaCl, 0.05% Tween-20], 1 g/L BSA) for 5 minutes. […] Data was fitted with 1:1 Langmuir equation and off-rate values were reported.

binding result	Binder
binds	B1

The binders below were run against T2, huCD33-R69-His recombinant protein (human, UniProt P20138 18-259) (assay: BLI).
T2 construct: extracellular domain
T2 sequence (P20138 18-259): as the sequence (P20138 18-259 R69G) above, with G52R counted along it
Protocol: as §1

binding result	Binder
no binding	B1

Each binder was assayed against T3, huFLT3-M227-Fc (human, UniProt P36888 27-543) (assay: BLI).
T3 construct: extracellular domain; also called FLT3 Mutant
Protocol: as §1

binding result	Binder
binds	B2
binds	B3
binds	B4
binds	B5
binds	B6
binds	B7
binds	B8
binds	B9
binds	B10
binds	B11
binds	B12
binds	B13
binds	B14
binds	B15
binds	B16
binds	B17
binds	B18
binds	B19
binds	B20
binds	B21

What follows are binders tested against T4, huFLT3-T227-His (human, UniProt P36888 27-543) (assay: BLI).
T4 construct: extracellular domain; also called FLT3 WT
Protocol: as §1

binding result	Binder
binds	B2
binds	B3
binds	B4
binds	B5
binds	B6
binds	B7
binds	B8
binds	B9
binds	B10
binds	B11
binds	B12
binds	B13
binds	B14
binds	B15
binds	B16
binds	B17
binds	B18
binds	B19
binds	B20
binds	B21

Each binder was assayed against T5, huCD33-R69 stably expressed on Jurkat cells (human, UniProt P20138 18-364) (assay: FACS on cells;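 note: fixed Jurkat cells bearing either CD33 variant, barcoded by dye, exposed to myc-tagged scFv periplasmic extracts, detected with anti-myc PE antibody and read by flow cytometry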).
T5 construct: whole, on cells; >200,000 receptors per cell; also called CD33 WT; CD33^ARG69
T5 sequence (P20138 18-364): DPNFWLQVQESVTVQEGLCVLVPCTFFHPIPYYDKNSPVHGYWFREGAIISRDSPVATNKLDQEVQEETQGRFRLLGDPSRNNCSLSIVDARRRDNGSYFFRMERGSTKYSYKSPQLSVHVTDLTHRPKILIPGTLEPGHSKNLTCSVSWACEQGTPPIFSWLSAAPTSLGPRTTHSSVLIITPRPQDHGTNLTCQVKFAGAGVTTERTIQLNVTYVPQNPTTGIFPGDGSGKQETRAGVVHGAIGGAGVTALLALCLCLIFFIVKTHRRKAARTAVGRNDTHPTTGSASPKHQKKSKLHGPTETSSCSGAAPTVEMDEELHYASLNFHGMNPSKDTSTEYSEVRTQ

geometric mean MFI fold change over Jurkat parental [fold]	Binder
< 2	B1

What follows are binders tested against T6, huCD33-G69 stably expressed on Jurkat cells (human, UniProt P20138 18-364) (assay: FACS on cells;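 note: fixed Jurkat cells bearing either CD33 variant, barcoded by dye, exposed to myc-tagged scFv periplasmic extracts, detected with anti-myc PE antibody and read by flow cytometry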).
T6 construct: whole, on cells; >200,000 receptors per cell; also called CD33 Mutant; CD33 R69G
T6 sequence (P20138 18-364 R69G): as the sequence (P20138 18-364) above, with R52G counted along it

geometric mean MFI fold change over Jurkat parental [fold]	Binder
2 to 10	B1
